Test results as given in the supplement of paper PMC10567573.
± gives the standard deviation.

Assay: protein stability index of a GFP-peptide fusion (GPS, HEK-293T) (PSI 1-6); higher = more stable
[1] = treatment: DMSO, c terminus: a fixed tail appended
[2] = treatment: MLN4924 1 uM, 8 h, c terminus: a fixed tail appended
[3] = treatment: DMSO, c terminus: native
[4] = treatment: MLN4924 1 uM, 8 h, c terminus: native
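Further: 24-mer peptide tiles fused after GFP, lentivirally expressed, FACS-sorted into six equal bins by GFP/DsRed ratio, decoded by Illumina sequencing, PSI is the read-weighted mean bin number.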

LQRVPSYDSFDSEDYPAALPNHKP [ETS1]
protein stability index [1]: 4.45 ± 0.18
protein stability index [2]: 4.53 ± 0.17

LQSCGDLHTFTPAGRPRAERRPRR [FAM189A2]
protein stability index [1]: 4.95 ± 0.27
protein stability index [2]: 5.07 ± 0.23

LRDIRAQYESIAAKNLQEAEEWYK [PRPH]
protein stability index [1]: 4.24 ± 0.24
protein stability index [2]: 4.33 ± 0.41

LREAEIARIRDEEAQRASFLQNAV [LRRC45]
protein stability index [1]: 4.37 ± 0.18
protein stability index [2]: 4.43 ± 0.27

LREERKKAKKNKDKYVGVSSDSVG [CLINT1]
protein stability index [1]: 4.95 ± 0.17
protein stability index [2]: 5.09 ± 0.15

LRKYSFDGLDLDWEYPGSQGSPAV [CHIT1]
protein stability index [1]: 2.32 ± 0.23
protein stability index [2]: 2.61 ± 0.38

LRRQKSLRLEWETQQELRKIREKE [IQUB]
protein stability index [1]: 3.94 ± 0.28
protein stability index [2]: 4.02 ± 0.091

LRRVLDELTLSKTDLEMQIESLNE [KRT13]
protein stability index [1]: 3.12 ± 0.098
protein stability index [2]: 2.98 ± 0.068

LRRWLRANLAASGGYAIAVVLLQG [TSPAN10]
protein stability index [1]: 2.43 ± 0.68
protein stability index [2]: 2.35 ± 0.075

LRVEFAAENYLSGGGPGDGGGADT [FBXO33]
protein stability index [1]: 4.16 ± 0.18
protein stability index [2]: 4.13 ± 0.26

LRVSPDGTAFCSGSWDHTLRVWA [GNB5]
protein stability index [3]: 2.95 ± 0.33
protein stability index [4]: 2.77 ± 0.77

LRYVNSTRAPQRAHEVLQELRDIS [FBXO28]
protein stability index [1]: 3.09 ± 0.21
protein stability index [2]: 3.35 ± 0.28

LSHSPQEDWVLLGMANGQQWLQST [TLE6]
protein stability index [1]: 2.57 ± 0.3
protein stability index [2]: 2.52 ± 0.26

LSLASLLVYVAAFSIGLGPMPWLV [SLC2A12]
protein stability index [1]: 2.93 ± 0.37
protein stability index [2]: 2.79 ± 0.68

LSLIGVRVDVDTYLTSQLPPLREI [NFE2L1]
protein stability index [1]: 3.12 ± 1.1
protein stability index [2]: 2.57 ± 0.58

LSQAPAEGPDLVPAALGSLTTAQI [HES6]
protein stability index [1]: 4.35 ± 0.32
protein stability index [2]: 4.36 ± 0.61

LSSSEGLEPGSADPLANGCQGVSE [PSD2]
protein stability index [1]: 5.39 ± 0.24
protein stability index [2]: 5.49 ± 0.12

LSTFSVPYFLFQHWATGYSKSSHP [SOAT1]
protein stability index [1]: 2.11 ± 0.4
protein stability index [2]: 2.56 ± 0.79

LTQRQVNITVQKKVSQWWERLTKQ [HACD3]
protein stability index [1]: 2.55 ± 0.33
protein stability index [2]: 2.81 ± 0.24

LTRPVPAGADLPPPKIRLKPHRLG [PWWP2B]
protein stability index [1]: 3.91 ± 0.29
protein stability index [2]: 3.73 ± 0.21

LTYGEVRNSKASAYCLDQGAEDGD [GALNT9]
protein stability index [1]: 5.37 ± 0.29
protein stability index [2]: 5.3 ± 0.29

LTYINEDRISTTFRLTTLLMSGCS [PLK2]
protein stability index [1]: 2.74 ± 0.63
protein stability index [2]: 2.56 ± 0.45

LVARFLEQSSCTMTPDIHELVENI [FAM189A2]
protein stability index [1]: 2.54 ± 0.55
protein stability index [2]: 2.37 ± 0.4

LVEAGAHTDMTNKQNKTPLDKSTT [FEM1B]
protein stability index [1]: 5.34 ± 0.29
protein stability index [2]: 5.27 ± 0.21

LVLLRQMLLELTRRGQEPLSALLQ [BCL2L13]
protein stability index [1]: 2.37 ± 0.22
protein stability index [2]: 2.62 ± 0.48

LVVQIDNAKLAADDFRTKYQTEQS [KRT33B]
protein stability index [1]: 3.18 ± 0.19
protein stability index [2]: 3.36 ± 0.16

LYPSLNVTSFDSVVPEKLDDLVPK [ALG2]
protein stability index [1]: 4.32 ± 0.14
protein stability index [2]: 4.42 ± 0.11

LYVVGGQSNYDTKGKTAVDTVFRF [KLHL13]
protein stability index [1]: 2.5 ± 0.2
protein stability index [2]: 1.98 ± 0.31

MAAADAEAVPARGEPQQDCCVKTE [EHMT1]
protein stability index [1]: 5.63 ± 0.21
protein stability index [2]: 5.53 ± 0.11

MAEQSDEAVKYYTLEEIQKHNHSK [CYB5A]
protein stability index [1]: 5.31 ± 0.24
protein stability index [2]: 5.28 ± 0.19

MATFPCQLCGKTFLTLEKFTIHNY [PLAGL1]
protein stability index [1]: 2.47 ± 0.23
protein stability index [2]: 2.4 ± 0.28

MDLMVEVSPRRIFANGHTYHINSI [PPP2R2C]
protein stability index [1]: 2.91 ± 0.41
protein stability index [2]: 2.8 ± 0.6

MDLRTAVYNAARDGKLQLLQKLLS [FEM1A]
protein stability index [1]: 2.21 ± 0.26
protein stability index [2]: 2.28 ± 0.24

MDMDQDSEEEKELYLNLALHLASD [PDS5B]
protein stability index [1]: 3.82 ± 0.23
protein stability index [2]: 4.04 ± 0.081

MDSAGQDINLNSPNKGLLSDSMTD [TPD52L2]
protein stability index [1]: 5.32 ± 0.2
protein stability index [2]: 5.25 ± 0.2

MDSKDVEVSSIQVRRKPQHGVCSQ [SERPINB9P1]
protein stability index [1]: 4.47 ± 0.13
protein stability index [2]: 4.64 ± 0.22

MDVTSRCTLGDPNKLPEGVPQPAR [KLHL20]
protein stability index [1]: 4.64 ± 0.28
protein stability index [2]: 4.72 ± 0.23

MDYDSYQHYFYDYDCGEDFYRSTA [MYCL]
protein stability index [1]: 2.75 ± 0.35
protein stability index [2]: 2.51 ± 0.26

MEKIPFVLGGNLQGGELVVAYPYD [CPXM2]
protein stability index [1]: 2.81 ± 0.48
protein stability index [2]: 2.79 ± 0.77

MGNILTCCINSHCGWPRGKDAPCY [DRICH1]
protein stability index [1]: 2.44 ± 0.39
protein stability index [2]: 2.08 ± 0.15

MGQHISLAPIHKLEEALYEYQPLQ [MNAT1]
protein stability index [1]: 3 ± 0.29
protein stability index [2]: 3 ± 0.048

MGTEPAPSAPEALHSLPGVSLSLE [TBX6]
protein stability index [1]: 4.28 ± 0.22
protein stability index [2]: 4.41 ± 0.24

MHHCKRYRSPEPDPYLSYRWKRRR [CLK3]
protein stability index [1]: 3.49 ± 0.39
protein stability index [2]: 3.69 ± 0.21

MIHGRSVLHIVASLIILHLSGATK [NETO1]
protein stability index [1]: 3.03 ± 0.24
protein stability index [2]: 3.02 ± 0.54

MILLVNLFVLLSVVCVLLNLAGFI [FAM189A2]
protein stability index [1]: 3.03 ± 0.34
protein stability index [2]: 3.14 ± 0.47

MINSTSTQPPDESCSQNLLITQQI [P2RY14]
protein stability index [1]: 4.24 ± 0.16
protein stability index [2]: 4.26 ± 0.096

MKDRLAELLDLSKQYDQQFPDGDD [STX11]
protein stability index [1]: 4.77 ± 0.33
protein stability index [2]: 4.89 ± 0.15

MLASVESVPFSFDPNTAAGWLSVS [TRIM35]
protein stability index [1]: 2.31 ± 0.22
protein stability index [2]: 2.33 ± 0.28

MLYAKPPPTINGIKGLQRKERLKP [KRT34]
protein stability index [1]: 3.1 ± 0.28
protein stability index [2]: 3.43 ± 0.19

MMRTQCLLGLRTFVAFAAKLWSFF [CTDNEP1]
protein stability index [1]: 4.22 ± 0.2
protein stability index [2]: 4.02 ± 0.29

MPLLRDIIKMATARQETKEMARKV [ZER1]
protein stability index [1]: 2.99 ± 0.3
protein stability index [2]: 3.06 ± 0.19

MSHKQIYYSDKYDDEEFEYRHVML [CKS1B]
protein stability index [1]: 2.52 ± 0.17
protein stability index [2]: 2.66 ± 0.18

MSLEGTEKASWLGEQPQFWSKTQV [ELF3]
protein stability index [1]: 3.31 ± 0.42
protein stability index [2]: 3.33 ± 0.16

MVAHDETGGLLPIKRTIRVLDVNN [NET1]
protein stability index [1]: 3.27 ± 0.21
protein stability index [2]: 3.35 ± 0.25

MYEEEMEREEITTKKRKLGKNPDV [FAM50A]
protein stability index [1]: 4.94 ± 0.57
protein stability index [2]: 5.14 ± 0.44

MYLKQLAEYRKYIHSRKCRCLVM [RHOBTB3]
protein stability index [3]: 1.95 ± 0.5
protein stability index [4]: 2 ± 0.33

NAKLAADDFRTKYQTEQSLRQLVE [KRT33B]
protein stability index [1]: 3.4 ± 0.26
protein stability index [2]: 3.48 ± 0.14

NDINILRVSNPGRLAELLLLETDA [GADD45A]
protein stability index [1]: 2.31 ± 0.19
protein stability index [2]: 2.5 ± 0.5

NDNKVLRYLAVLESPIPEDKDRRF [EFHC1]
protein stability index [1]: 3.51 ± 0.21
protein stability index [2]: 3.6 ± 0.15

NEEIRAVGRLKRERSMSENAVRQN [MFF]
protein stability index [1]: 5.15 ± 0.2
protein stability index [2]: 4.87 ± 0.27

NETGYLSSVECYNLETNEWRYVSS [KLHL14]
protein stability index [1]: 2.61 ± 0.32
protein stability index [2]: 2.91 ± 0.57

NFQFLPQVNGHPDPFDEIILFSLP [PTPN9]
protein stability index [1]: 2.4 ± 0.29
protein stability index [2]: 2.37 ± 0.19

NGAGVTVLRREISELRTKVQEQQK [FBXO28]
protein stability index [1]: 4.11 ± 0.23
protein stability index [2]: 4.21 ± 0.13

NGIHVCMVFEVLGHHLLKWIIKSN [SRPK2]
protein stability index [1]: 3.01 ± 0.14
protein stability index [2]: 2.96 ± 0.29

NGLALGPDLNILEDSAESRPWRAG [PSD2]
protein stability index [1]: 4 ± 0.14
protein stability index [2]: 4.24 ± 0.38

NGSSEKREVRQFQFTAWPDHGVPE [PTPRD]
protein stability index [1]: 4.41 ± 0.14
protein stability index [2]: 4.43 ± 0.19

NGVTQKASAPTYPSLYSSYHQGCL [NANOGP8]
protein stability index [1]: 2.75 ± 0.11
protein stability index [2]: 2.93 ± 0.34

NIEEIDEIPLVIKYKKAVGLKLKQ [WDR88]
protein stability index [1]: 2.78 ± 0.19
protein stability index [2]: 2.91 ± 0.28

NISHTKEKKKGKAKKKRLTKADIG [WASL]
protein stability index [1]: 4.78 ± 0.23
protein stability index [2]: 4.81 ± 0.26

NKALWENNKLKLQQKLVIDTVTEV [CBY2]
protein stability index [1]: 3.16 ± 0.35
protein stability index [2]: 3.29 ± 0.25

NKLQTLSPSHKGIAAPHAGANVKP [ZC2HC1A]
protein stability index [1]: 4.35 ± 0.16
protein stability index [2]: 4.457 ± 0.035

NKPAVKLLYNRSNNKYSYTSNSDD [KCTD10]
protein stability index [1]: 4.1 ± 0.1
protein stability index [2]: 4.03 ± 0.31

NLEKQLICPICLEMFTKPVVILPC [TRIM55]
protein stability index [1]: 2.41 ± 0.34
protein stability index [2]: 2.33 ± 0.22

NLLISLTFLTVTDLIGLPWVCFIY [SLC2A12]
protein stability index [1]: 3.36 ± 0.45
protein stability index [2]: 3.19 ± 0.63

NLSYKQVKTWFQNQRMKSKRWQKN [NANOGP8]
protein stability index [1]: 2.54 ± 0.23
protein stability index [2]: 2.57 ± 0.33

NLWYSFQDEEDMFMVVDLLLGGDL [STK32A]
protein stability index [1]: 2.41 ± 0.69
protein stability index [2]: 2.2 ± 0.39

NMERFGEDNLEDDDVEMKNGITQG [CDC14A]
protein stability index [1]: 5.54 ± 0.19
protein stability index [2]: 5.53 ± 0.23

NNIKFKKSSILTRAGEQRKRSQSM [CLCN6]
protein stability index [1]: 4.06 ± 0.41
protein stability index [2]: 4.39 ± 0.1

NNKLKLQQKLVIDTVTEVTARMEM [CBY2]
protein stability index [1]: 2.94 ± 0.53
protein stability index [2]: 2.89 ± 0.41

NNYRLGGNPSTNSRVTASSGITIP [SMARCE1]
protein stability index [1]: 3.64 ± 0.3
protein stability index [2]: 3.54 ± 0.38

NPALEGLTQPLQGGTPHCEPCQLP [DNAAF3]
protein stability index [1]: 4.89 ± 0.36
protein stability index [2]: 4.97 ± 0.24

NPAVRTAAANAAAGAAENAFRAP [SCAMP3]
protein stability index [3]: 3.08 ± 0.69
protein stability index [4]: 3.36 ± 0.55

NPEEYNLDEPNAESDYTYSSSYEQ [SRPK2]
protein stability index [1]: 5.52 ± 0.19
protein stability index [2]: 5.46 ± 0.25

NPRAPVIIYKQTKGGVQNFNKDLV [CEP70]
protein stability index [1]: 2.52 ± 0.18
protein stability index [2]: 2.46 ± 0.25

NPYTELLVLKAHHDIVRFLVQLDD [WDR41]
protein stability index [1]: 2.84 ± 0.39
protein stability index [2]: 2.65 ± 0.35

NQKSDIWALGCVLYELASLKRAFE [NEK8]
protein stability index [1]: 2.38 ± 0.72
protein stability index [2]: 2.41 ± 0.34

NSEDIFLLLCLKVDNHFNLLTTSP [TRIM43]
protein stability index [1]: 2.58 ± 0.33
protein stability index [2]: 2.31 ± 0.67

NSNLEEPLNPKPHKKKSPGEKPHR [ZNF449]
protein stability index [1]: 5.47 ± 0.23
protein stability index [2]: 5.45 ± 0.2

NSSTWGSLKQALKGLSVEFALLAD [SNX8]
protein stability index [1]: 2.39 ± 0.55
protein stability index [2]: 2.45 ± 0.36
